Experimental data reported in patent US10463750.
One block for each substance: values may come before it.

Columns and labels:
[1] = biological target: Pmel TCR (tumor-antigen gp-100 specific transgenic TCR of CD8+ Pmel T cells) (mouse); assay: cell-based or functional assay
[2] = biological target: 2C TCR (transgenic T cell receptor of CD8+ 2C T cells) (mouse); assay: cell-based or functional assay

lysis of T2 cells, pre-targeted assay, E:T 10:1, 51Cr release [1]: < 40%
re-directional specific lysis window (Db-gp100-Ig/CD19 against Db-gp100-Ig beads) [1]: 5%
Substance: GP 100 peptide loaded D^b-Ig dimer (from UniProt P61769 21-119) (peptide-MHC)

lysis of T2 cells, pre-targeted assay, E:T 10:1, 51Cr release [2]: < 20%
re-directional lysis specific window (Ld-QL9-Ig/CD19 against Ld-QL9-Ig beads) [2]: < 15%
Substance: QL9 peptide loaded L^d-Ig dimer (from UniProt P61769 21-119) (peptide-MHC)

1B2/CD19 specific re-direction lysis of T2 cells, pre-targeted protocol, 51Cr release [2]: 20 to 25%
PKH26/67 double positive cell conjugates (2C/T2 conjugate formation) [2]: 19.5%
re-directional specific lysis window of T2 cells (1B2/CD19 minus 1B2 beads), co-culture, E:T 1:1, 51Cr release [2]: 30%
re-directional specific lysis window of T2 cells (1B2/CD19 minus 1B2 beads), co-culture, E:T 2:1, 51Cr release [2]: 20%
re-directional specific lysis window of T2 cells (1B2/CD19 minus 1B2 beads), co-culture, E:T 5:1, 51Cr release [2]: 10%
specific lysis of T2 cells, pre-targeted protocol (FIG. 4B), 51Cr release [2]: 20%
Substance: 1B2 (an anti-clonotypic 2C TCR-specific mAb; mouse IgG1 isotype) (antibody)
